The assay deals with GST-PreScission-p62 FIR 4P (human) (UniProt Q13501). Briefly: SPR.

On to “LC3B (1-125), His8-TEV-LC3B (from UniProt Q9GZQ8 1-120) (natural protein)”, for which the KD estimated from the kinetics of the sensorgrams is 80 nM and the half life came to 20 min.

Values taken from article doi:10.1101/2021.02.22.432209.
